In paper PMC3982999:
pKd: −log10 of the molar value.

Target: human ubiquitin (human) (UniProt P0CG48)
Experiment: NMR titration

A pKd of over 5.00 was found for “WT spartin 155-367 (GST tag removed) (from UniProt Q8N0X7 155-367) (domain or fragment)” in this work.
